Measurements from patent publication US10502741B2, “Means and methods for detecting activated MALT1” (Helmholtz Zentrum München Deutsches Forschungszentrum für …, priority 2014, dated 2019).

Target: T1, active MALT1 (Homo sapiens, UniProt Q9UDY8)
T1 construct: endogenous in cells; host or cells: Jurkat T cells, primary human PBMCs and T cells, DLBCL cell lines (HBL1, TMD8, OCI-Ly3, OCI-Ly10, U2932, RIVA, BJAB, Su-DHL-4, Su-DHL-6)
T1 sequence (Q9UDY8 1-824): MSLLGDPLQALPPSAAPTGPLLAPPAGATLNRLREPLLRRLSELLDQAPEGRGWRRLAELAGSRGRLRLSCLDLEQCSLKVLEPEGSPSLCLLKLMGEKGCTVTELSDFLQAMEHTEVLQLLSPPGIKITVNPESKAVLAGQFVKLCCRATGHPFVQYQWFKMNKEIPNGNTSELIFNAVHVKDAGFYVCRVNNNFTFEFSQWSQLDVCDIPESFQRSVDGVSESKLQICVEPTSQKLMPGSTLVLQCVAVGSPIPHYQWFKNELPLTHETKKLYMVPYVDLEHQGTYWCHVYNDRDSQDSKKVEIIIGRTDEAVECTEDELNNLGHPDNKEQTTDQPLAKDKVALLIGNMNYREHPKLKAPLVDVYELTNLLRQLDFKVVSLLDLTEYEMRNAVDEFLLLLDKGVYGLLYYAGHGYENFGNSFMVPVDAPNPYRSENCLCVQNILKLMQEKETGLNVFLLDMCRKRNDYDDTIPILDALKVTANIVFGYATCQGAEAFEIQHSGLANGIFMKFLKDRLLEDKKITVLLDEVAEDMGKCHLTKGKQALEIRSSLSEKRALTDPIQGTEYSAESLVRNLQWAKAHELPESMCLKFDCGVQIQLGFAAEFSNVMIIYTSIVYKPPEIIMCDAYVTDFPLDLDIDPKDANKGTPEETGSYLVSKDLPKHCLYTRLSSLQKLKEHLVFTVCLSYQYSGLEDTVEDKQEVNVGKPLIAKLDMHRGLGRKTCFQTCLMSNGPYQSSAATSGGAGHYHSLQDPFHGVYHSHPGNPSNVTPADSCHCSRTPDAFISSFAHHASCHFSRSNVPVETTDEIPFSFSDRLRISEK
Assay: MALT1 ELASA in cryo-preserved patient DLBCL tumor samples
Settings: 0.25 μM on lysed tumor tissue
Protocol: FIG. 10: A) Active MALT1 detection in cryo-preserved patient tumor samples. Frozen tumor tissue was lysed with a douncer and syringe, incubated with z-VRPR-FMK (0.25 μM) (SEQ ID No. 6) or left untreated before MALT1 activity read-out as above. Relative MALT1 activity from each untreated and z-VRPR-FMK (SEQ ID No. 6) treated samples was measured and directly compared (ABC DLBCL n=8; GCB DLBCL n=7). Significance for MALT1 activity in untreated to z-VRPR-FMK (SEQ ID No. 6) treated samples was calculated by a two-tailed t-test (**<0.005). B) Oncogenic CARMA1 is sufficient to trigger MALT1 activation. BJAB transduced with CARMA1 WT or L244P (ABC derived) or L225PI (GCB derived) were lysed and treated with z-VRPR-FMK (SEQ ID No. 6) and analyzed as above. Results and SD from three independent experiments are shown. MALT1 activity is depicted as arbitrary units [AU].
Untreated DLBCL (1×10^7), primary T cells (0.25×10^7) or Jurkat T cells (0.2-1×10^7) (stimulated or not) were lysed in 300 μl co-IP buffer without protease inhibitors, centrifuged, incubated with probe 7 (concentration as depicted) for 1 h at RT, then transferred to streptavidin-coated plates (96 well, clear) and incubated o/n at 4° C. […] was determined after TMB substrate incubation in a photometer (Bio-Tek). […]

## z-VRPR-FMK (Z N-terminal cap, FMK warhead)
7 GCB DLBCL biopsies
  samples with reduction in MALT1 activity, GCB DLBCL: one out of seven
8 ABC DLBCL biopsies
  samples with reduction in MALT1 activity, ABC DLBCL: five out of eight
